According to article PMC11582362 (2023):

B1: full length ADAR1 p110, wild type (FLAG-tagged and HA-tagged copies) [human] / itself (parent complex)
chain: MAEIKEKICDYLFNVSDSSALNLAKNIGLTKARDINAVLIDMERQGDVYRQGTTPPIWHLTDKKRERMQIKRNTNSVPETAPAAIPETKRNAEFLTCNIPTSNASNNMVTTEKVENGQEPVIKLENRQEARPEPARLKPPVHYNGPSKAGYVDFENGQWATDDIPDDLNSIRAAPGEFRAIMEMPSFYSHGLPRCSPYKKLTECQLKNPISGLLEYAQFASQTCEFNMIEQSGPPHEPRFKFQVVINGREFPPAEAGSKKVAKQDAAMKAMTILLEEAKAKDSGKSEESSHYSTEKESEKTAESQTPTPSATSFFSGKSPVTTLLECMHKLGNSCEFRLLSKEGPAHEPKFQYCVAVGAQTFPSVSAPSKKVAKQMAAEEAMKALHGEATNSMASDNQPEGMISESLDNLESMMPNKVRKIGELVRYLNTNPVGGLLEYARSHGFAAEFKLVDQSGPPHEPKFVYQAKVGGRWFPAVCAHSKKQGKQEAADAALRVLIGENEKAERMGFTEVTPVTGASLRRTMLLLSRSPEAQPKTLPLTGSTFHDQIAMLSHRCFNTLTNSFQPSLLGRKILAAIIMKKDSEDMGVVVSLGTGNRCVKGDSLSLKGETVNDCHAEIISRRGFIRFLYSELMKYNSQTAKDSIFEPAKGGEKLQIKKTVSFHLYISTAPCGDGALFDKSCSDRAMESTESRHYPVFENPKQGKLRTKVENGEGTIPVESSDIVPTWDGIRLGERLRTMSCSDKILRWNVLGLQGALLTHFLQPIYLKSVTLGYLFSQGHLTRAICCRVTRDGSAFEDGLRHPFIVNHPKVGRVSIYDSKRQSGKTKETSVNWCLADGYDLEILDGTRGTVDGPRNELSRVSKKNIFLLFKKLCSFRYRRDLLRLSYGEAKKAARDYETAKNYFKKGLKDMGYGNWISKPQEEKNFYLCPV

Variants of: B1
Experiment: co-immunoprecipitation (anti-FLAG IP, anti-HA western blot, bands quantified with ImageJ); HEK293T cells; in the presence of RNases; n = 3; parent: 70; read off a plot

Row | response | Variant
1 | ~10% | chain 1 V452A, chain 1 D453Q, chain 1 W473V, chain 1 C478S
